Measured values reported in patent US20260364215A1, “Radiopharmaceutical Compositions Targeting Ephrin Type-A Receptor 2 and Uses Thereof” (PeptiDream Inc., priority 2022, published 2026).
Numbered stars: 1 amine (or outer) side, 2 acyl side, 3 side chain; on linkers, the order of the positions; unused ones are H or OH. Bridge positions count the residues as written; N and C are the ends. Square brackets hold non-standard residues; d marks the D form. Side chains are listed from the residue outwards. Peptide text beside a SMILES is read from it. * marks the point of attachment. DOTA(Lu) = O=C1CN2CCN3CCN(CC(=O)*)CCN(CC2)CC(=O)[O][Lu]([O]1)[O]C(=O)C3; NH(1-deoxy-D-glucityl) = OC[C@@H](O)[C@@H](O)[C@H](O)[C@@H](O)CN*; DOTA = O=C(O)CN1CCN(CC(=O)O)CCN(CC(=O)*)CCN(CC(=O)O)CC1; Trp(1-Me,7-Cl) = Cn1cc(C[C@H](N)C(=O)O)c2cccc(Cl)c21; dPhe(3-CONH2) = NC(=O)c1cccc(C[C@@H](N)C(=O)O)c1; Piperazinyl(4-CH2COOH) = O=C(O)CN1CCN(*)CC1; Trp(1-Me) = Cn1cc(C[C@H](N)C(=O)O)c2ccccc21; PEG8 = NCCOCCOCCOCCOCCOCCOCCOCCOCCC(=O)O; NMe3Pal = CN[C@@H](Cc1cccnc1)C(=O)O; NMeF = CN[C@@H](Cc1ccccc1)C(=O)O; hArg = N=C(N)NCCCC[C@H](N)C(=O)O; Gly(cBu) = N[C@H](C(=O)O)C1CCC1; NMeE = CN[C@@H](CCC(=O)O)C(=O)O; Aad = N[C@@H](CCCC(=O)O)C(=O)O; AEEA = NCCOCCOCC(=O)O; CO = O=C([*:1])[*:2]; βAla = NCCC(=O)O

What was measured:
[1] = molecular target: T1, Recombinant Human EphA2 Fc Protein (Homo sapiens, UniProt P29317); experiment: Interaction analysis (kinetics, KD) of peptides and conjugates against EphA2 by SPR, Biacore T200, single-cycle kinetics (Examples B15 and B22); assay type: binding; settings: conjugates, Biacore T200 according to Example B15, Table B16; read-out: SPR Kd
T1 construct: purchased Elabscience
Method in brief: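 Biacore T200 SPR with Fc-tagged human EphA2 captured via anti-human antibody; running buffer HBS-P+ pH 7.4 with 1% DMSO, 25 °C. Five serial dilutions of peptide or conjugate run by single-cycle kinetics; KD from ka and kd after baseline subtraction.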

[2] = molecular target: T2, EphA2 (Biotin-Avi-His-EphA2; Fc-EphA2 where the peptide had a biotin) (Homo sapiens, UniProt P29317); experiment: Surface plasmon resonance (SPR) peptide binding, Biacore 8K, immobilized EphA2, single cycle kinetics (Example C7); settings: 25 °C, Langmuir 1:1
T2 construct: His; purchased SinoBiologicals 13926-H27H-B
Description: Example C7. Surface Plasmon Resonance (SPR)
For analysis of peptide binding, a Biacore 8K instrument was used utilizing a SA chip. Biotin-Avi-His-EphA2 (SinoBiologicals, 13926-H27H-B) was immobilized on the chip using streptavidin-biotin chemistry at 25 °C in HBS-P+ buffer (10 mM HEPES, 150 mM NaCl, 0.05% Tween-20, pH 7.4) to a level of 1000-2000 RU (dependent on the analyte molecular weight). […] A dilution series of peptides was prepared in this buffer with a final DMSO concentration of 0.1% with a top peptide concentration between 10-100 nM and 9 further 2-fold dilutions. The SPR analysis was run at 25 °C at a flow rate of 30 μL/min in HBS-P+ with 0.1% DMSO running buffer and with a 120 second association and 1,200 second dissociation using single cycle kinetics methodology. All data was analyzed using Biacore Insight Evaluation Software version 4. Data was fitted using a Langmuir 1:1 binding model.

[3] = Plasma stability (% remaining of test compound in CD-1 (ICR) mouse plasma at 37 °C; Example C1); assay type: in vitro ADME; settings: for % Remaining Mouse: 0 min; for remaining at 2 h, 2 µM: pH 7.4, 120 min; for half-life at 2 µM: pH 7.4, read-out: T1/2 (min) Mouse
Description: Example C1. Plasma Stability
The pooled frozen CD-1 (ICR) mouse plasma was thawed in a water bath at 37 °C prior to experiment. Plasma was centrifuged at 4000 rpm for 5 min and the clots were removed if any. pH was adjusted to 7.4±0.1 if required.
Plasma (98 μL) and test compounds (2 μL, 100 μM, in DMSO) or reference compound propantheline bromide (2 μL, 100 μM in 40% v/v MeOH/H2O) were added to the individual wells of a 96-well microtiter plate in duplicate. The plate was incubated at 37 °C. During the incubation, aliquots were withdrawn at 0, 10, 30, 60, 120, and 300 minutes. 100 μL 4% H3PO4 and 800 μL of stop solution (200 ng/mL tolbutamide and 200 ng/mL labetalol in 100% CH3CN) were added to precipitate unwanted proteins. After mixing thoroughly, the quenched aliquots were centrifuged at 4,000 rpm for 20 min. Aliquots (100 μL) of supernatant were transferred to a new plate. The samples were shaken at 800 rpm for 10 min before performing LC-MS/MS analysis.
The analytes were detected by a multiple reaction monitoring method using a SCIEX Triple Quad 6500+ system equipped with an ACQUITY UPLC HSS T3 column (100 Å, 1.8 μm, 2.1 mm×30 mm). Mobile phase A: water with 0.1% formic acid; Mobile phase B: CH3CN with 0.1% formic acid.
(§1) The % remaining of test compound after incubation in plasma was calculated using the following equation:
(§2) % Remaining=100×(PAR(t)/PAR(t0)), where PAR is the peak area ratio of analyte versus internal standard (IS)

[4] = Plasma stability (% remaining and T1/2 of test compound in human plasma; Table C1); assay type: in vitro ADME; settings: for % Remaining Human: 0 min; for remaining at 2 h: 120 min
Description: as §1, §2

T2 sequence (P29317 24-534 limits assumed): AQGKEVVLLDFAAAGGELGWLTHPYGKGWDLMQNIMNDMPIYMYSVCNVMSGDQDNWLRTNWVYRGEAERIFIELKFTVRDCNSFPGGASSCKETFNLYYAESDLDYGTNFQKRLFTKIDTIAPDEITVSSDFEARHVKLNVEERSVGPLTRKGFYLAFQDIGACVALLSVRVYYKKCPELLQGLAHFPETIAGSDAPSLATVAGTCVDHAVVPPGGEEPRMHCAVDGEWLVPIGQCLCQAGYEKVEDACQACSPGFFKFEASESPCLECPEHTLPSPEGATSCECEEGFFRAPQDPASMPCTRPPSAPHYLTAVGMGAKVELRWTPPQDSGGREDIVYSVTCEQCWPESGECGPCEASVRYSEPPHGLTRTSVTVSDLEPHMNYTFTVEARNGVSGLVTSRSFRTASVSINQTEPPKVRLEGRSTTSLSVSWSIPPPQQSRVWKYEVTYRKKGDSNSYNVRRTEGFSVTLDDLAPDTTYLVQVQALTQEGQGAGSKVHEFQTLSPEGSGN
T1 sequence (P29317 24-534 limits assumed): as above

Compound	Kd [1] [nM]	KD [2] [M⁻¹]	% Remaining Mouse [3] [%]	remaining at 2 h, 2 µM [3] [%]	half-life at 2 µM [3] [min]	half-life [4] [h]	% Remaining Human [4] [%]	remaining at 2 h [4] [%]
C[C@@H](O)[C@@H]1NC(=O)[C@H](Cc2cn(C)c3ccccc23)NC(=O)[C@H](CCCCNC(=O)N2CCN(CC(=O)O)CC2)NC(=O)[C@H](Cc2cn(C)c3c(Cl)cccc23)NC(=O)[C@H](CCC(=O)O)N(C)C(=O)[C@H](CCCC(N)=O)NC(=O)[C@H](C2CCC2)NC(=O)[C@H](CC(N)=O)NC(=O)[C@H](Cc2cccnc2)N(C)C(=O)[C@@H](Cc2cccc(C(N)=O)c2)NC(=O)CSC[C@@H](C(=O)N[C@H](CCCCNC(=O)CN2CCN(CC(=O)O)CCN(CC(=O)O)CCN(CC(=O)O)CC2)C(N)=O)NC(=O)[C@H](CCCCNC(=N)N)NC1=O.[Lu+3] [PDC_EphA2-00019443-C302] ({CH2CO}-[dPhe(3-CONH2)][NMe3Pal]N[Gly(cBu)][Aad](NH2)[NMeE][Trp(1-Me,7-Cl)]K([CO-Piperazinyl(4-CH2COOH)])[Trp(1-Me)]T[hArg]C[dK](DOTA)-NH2; thioether N-12)	< 1	2.7e-11	–	–	–	–	–	–
CC(C)C[C@@H]1NC(=O)[C@H](CC(N)=O)NC(=O)[C@H](Cc2cccnc2)N(C)C(=O)[C@@H](C)NC(=O)CSC[C@@H](C(=O)N[C@H](CCCCNC(=O)CN2CCN(CC(=O)O)CCN(CC(=O)O)CCN(CC(=O)O)CC2)C(N)=O)NC(=O)[C@H](CCCCNC(=N)N)NC(=O)[C@H]([C@@H](C)O)NC(=O)[C@H](Cc2cn(C)c3ccccc23)NC(=O)[C@H](CCCCNC(=O)N2CCN(CC(=O)O)CC2)NC(=O)[C@H](Cc2cn(C)c3ccccc23)NC(=O)[C@H](CCC(=O)O)N(C)C(=O)[C@H](CCCC(N)=O)NC1=O.[Lu+3] [PDC_EphA2-00008010-C302] ({CH2CO}-[dA][NMe3Pal]NL[Aad](NH2)[NMeE][Trp(1-Me)]K([CO-Piperazinyl(4-CH2COOH)])[Trp(1-Me)]T[hArg]C[dK](DOTA)-NH2; thioether N-12)	< 1	2.11e-10	–	–	–	–	–	–
C[C@@H](O)[C@@H]1NC(=O)[C@H](Cc2cn(C)c3ccccc23)NC(=O)[C@H](CCCCNC(=O)N2CCN(CC(=O)O)CC2)NC(=O)[C@H](Cc2cn(C)c3c(Cl)cccc23)NC(=O)[C@H](CCC(=O)O)N(C)C(=O)[C@H](CCCC(N)=O)NC(=O)[C@H](C2CCC2)NC(=O)[C@H](CC(N)=O)NC(=O)[C@H](Cc2cccnc2)N(C)C(=O)[C@@H](Cc2cccc(C(N)=O)c2)NC(=O)CSC[C@@H](C(=O)N[C@H](CCCCNC(=O)CN2CCN(CC(=O)O)CCN(CC(=O)O)CCN(CC(=O)O)CC2)C(N)=O)NC(=O)[C@H](CCCC(N)=O)NC1=O.[Lu+3] [PDC_EphA2-00019440-C302] ({CH2CO}-[dPhe(3-CONH2)][NMe3Pal]N[Gly(cBu)][Aad](NH2)[NMeE][Trp(1-Me,7-Cl)]K([CO-Piperazinyl(4-CH2COOH)])[Trp(1-Me)]T[Aad](NH2)C[dK](DOTA)-NH2; thioether N-12)	< 1	8.18e-11	–	–	–	–	–	–
CC(C)C[C@@H]1NC(=O)[C@H](CC(N)=O)NC(=O)[C@H](Cc2cccnc2)N(C)C(=O)[C@@H](C)NC(=O)CSC[C@@H](C(=O)N[C@H](CCCCNC(=O)CN(C)C(=O)CN(C)C(=O)CN(C)C(=O)CN(C)C(=O)CN(C)C(=O)CN(C)C(=O)CN(C)C(=O)CN(C)C(=O)CN(C)C(=O)CN(C)C(=O)CCNC(=O)CN2CCN(CC(=O)O)CCN(CC(=O)O)CCN(CC(=O)O)CC2)C(N)=O)NC(=O)[C@H](CCCC(N)=O)NC(=O)[C@H]([C@@H](C)O)NC(=O)[C@H](Cc2cn(C)c3ccccc23)NC(=O)[C@H](CCCCNC(=O)N2CCN(CC(=O)O)CC2)NC(=O)[C@H](Cc2cn(C)c3ccccc23)NC(=O)[C@H](Cc2ccccc2)N(C)C(=O)[C@H](CCCC(N)=O)NC1=O.[Lu+3] [PDC_EphA2-00008093-C310]	< 1	–	100.0	107	> 289	> 4.82	100.0	99
CC(C)C[C@@H]1NC(=O)[C@H](CC(N)=O)NC(=O)[C@H](Cc2cccnc2)N(C)C(=O)[C@@H](C)NC(=O)CSC[C@@H](C(=O)N[C@H](CCCCNC(=O)CN2CCN(CC(=O)O)CCN(CC(=O)O)CCN(CC(=O)O)CC2)C(N)=O)NC(=O)[C@H](CCCC(N)=O)NC(=O)[C@H]([C@@H](C)O)NC(=O)[C@H](Cc2cn(C)c3ccccc23)NC(=O)[C@H](CCCCNC(=O)N2CCN(CC(=O)O)CC2)NC(=O)[C@H](Cc2cn(C)c3ccccc23)NC(=O)[C@H](Cc2ccccc2)N(C)C(=O)[C@H](CCCC(N)=O)NC1=O.[Lu+3] [PDC_EphA2-00008093-C302] ({CH2CO}-[dA][NMe3Pal]NL[Aad](NH2)[NMeF][Trp(1-Me)]K([CO-Piperazinyl(4-CH2COOH)])[Trp(1-Me)]T[Aad](NH2)C[dK](DOTA)-NH2; thioether N-12)	< 1	–	100.0	101	> 289	> 4.82	100.0	102
CC(C)C[C@@H]1NC(=O)[C@H](CC(N)=O)NC(=O)[C@H](Cc2cccnc2)N(C)C(=O)[C@@H](C)NC(=O)CSC[C@@H](C(=O)N[C@H](CCCCNC(=O)CN2CCN3CCN4CCN(CC2)CC(=O)[O][Lu]([O]C(=O)C3)[O]C(=O)C4)C(N)=O)NC(=O)[C@H](CCCC(N)=O)NC(=O)[C@H]([C@@H](C)O)NC(=O)[C@H](Cc2cn(C)c3ccccc23)NC(=O)[C@H](CCCCNC(=O)N2CCN(CC(=O)O)CC2)NC(=O)[C@H](Cc2cn(C)c3ccccc23)NC(=O)[C@H](CCC(=O)O)N(C)C(=O)[C@H](CCCC(N)=O)NC1=O [PDC_EphA2-00007196-C302] ({CH2CO}-[dA][NMe3Pal]NL[Aad](NH2)[NMeE][Trp(1-Me)]K([CO-Piperazinyl(4-CH2COOH)])[Trp(1-Me)]T[Aad](NH2)C[dK](DOTA(Lu))-NH2; thioether N-12)	< 1	3.74e-10	100.0	99.4	> 289	> 4.82	100.0	96.3
CC(C)C[C@@H]1NC(=O)[C@H](CC(N)=O)NC(=O)[C@H](Cc2ccccc2)N(C)C(=O)[C@@H](C)NC(=O)CSC[C@@H](C(=O)NCCC(=O)N[C@H](CCCCNC(=O)COCCOCCNC(=O)CCOCCOCCOCCOCCOCCOCCOCCOCCNC(=O)CN2CCN(CC(=O)O)CCN(CC(=O)O)CCN(CC(=O)O)CC2)C(N)=O)NC(=O)[C@H](CCC(=O)O)NC(=O)[C@H]([C@@H](C)O)NC(=O)[C@H](Cc2cn(C)c3ccccc23)NC(=O)[C@H](C(C)C)NC(=O)[C@H](Cc2cn(C)c3ccccc23)NC(=O)[C@H](Cc2ccccc2)N(C)C(=O)[C@H](CCCC(=O)O)NC1=O.[Lu+3] [PDC_EphA2-00001417-C306] ({CH2CO}-[dA][NMeF]NL[Aad][NMeF][Trp(1-Me)]V[Trp(1-Me)]TEC[βAla][dK]([AEEA-PEG8-DOTA])-NH2; thioether N-12)	1 to 10	–	100	91	> 289	> 4.82	100	99
C[C@@H](O)[C@@H]1NC(=O)[C@H](Cc2cn(C)c3ccccc23)NC(=O)[C@H](CCC(=O)NC[C@H](O)[C@@H](O)[C@H](O)[C@H](O)CO)NC(=O)[C@H](Cc2cn(C)c3c(Cl)cccc23)NC(=O)[C@H](Cc2cccnc2)N(C)C(=O)[C@H](CCCC(N)=O)NC(=O)[C@H](C2CCC2)NC(=O)[C@H](CC(N)=O)NC(=O)[C@H](Cc2cccnc2)N(C)C(=O)[C@@H](Cc2cccc(C(N)=O)c2)NC(=O)CSC[C@@H](C(=O)N[C@H](CCCCNC(=O)CN2CCN(CC(=O)O)CCN(CC(=O)O)CCN(CC(=O)O)CC2)C(N)=O)NC(=O)[C@H](CCCC(N)=O)NC1=O.[Lu+3] [PDC_EphA2-00019437-C302] ({CH2CO}-[dPhe(3-CONH2)][NMe3Pal]N[Gly(cBu)][Aad](NH2)[NMe3Pal][Trp(1-Me,7-Cl)]E(NH(1-deoxy-D-glucityl))[Trp(1-Me)]T[Aad](NH2)C[dK](DOTA)-NH2; thioether N-12)	< 1	–	–	–	–	–	–	–
